Experimental data from patent US7276258B2, “Herbal extract and compound lupinoside and its analogues as anti-diabetic type II drugs from plant Pueraria tuberosa” (Council of Scientific & Industrial Research, priority 2004, dated 2007).

Molecular target: T1, insulin receptor (Mus musculus, UniProt P15208)
T1 construct: endogenous in cells; host or cells: 3T3-L1 adipocytes (membrane fraction solubilized with lithium diiodosalicylate / 0.1% Triton X-100)
Experiment: Scatchard analysis of 125I-insulin binding to solubilized receptor preparation from 3T3L1 adipocytes
Settings: insulin alone
Description: Radiolabeled insulin binding to solubilized receptor preparations. Control and FFA treated 3T3L1 adipocytes were first washed thrice with 0.02M Phosphate Buffer (pH-7.4) containing 0.14M NaCl and then resuspended in Lysis Buffer (20 mM Tris-HCl, 40 mM NaCl, 5 mM EDTA, 5 mM Iodoacetamide, pH-8.4) supplemented with protease inhibitors (1 μg/ml aprotinin, 1 μg/ml pepstatin, 1 μg/ml leupeptin, 2 mM phenyl methyl sulfonyl fluoride and 1 μg/ml trypsin inhibitor). These cells were then freeze thawed thrice at −70° C. and centrifuged at 10,000 rpm for 15 min at 4° C. The pellet collected was resuspended in Lysis Buffer, sonicated and again centrifuged at 10,000 rpm for 15–20 min at 4° C. The supernatant was dialysed overnight against 10 mM Tris-HCl (pH-7.4) buffer and volume reduced by lyophilisation. […]
Scatchard Analysis. […] After the termination of the incubations, free and bound radioactivity was separated by the addition of 500 μl of 0.5% chilled polyethylene glycol (PEG; MW 6000). […] The radioactivity in the final pellet was measured in a ^125I-gamma counter. The specific binding was calculated by subtracting non-specific binding from total binding. Data were then analyzed by Scatchard analysis to determine the affinity and capacity of insulin receptor binding in the presence or absence of palmitic acid (see FIG. 1b).

T1 sequence (P15208 28-748 limits assumed): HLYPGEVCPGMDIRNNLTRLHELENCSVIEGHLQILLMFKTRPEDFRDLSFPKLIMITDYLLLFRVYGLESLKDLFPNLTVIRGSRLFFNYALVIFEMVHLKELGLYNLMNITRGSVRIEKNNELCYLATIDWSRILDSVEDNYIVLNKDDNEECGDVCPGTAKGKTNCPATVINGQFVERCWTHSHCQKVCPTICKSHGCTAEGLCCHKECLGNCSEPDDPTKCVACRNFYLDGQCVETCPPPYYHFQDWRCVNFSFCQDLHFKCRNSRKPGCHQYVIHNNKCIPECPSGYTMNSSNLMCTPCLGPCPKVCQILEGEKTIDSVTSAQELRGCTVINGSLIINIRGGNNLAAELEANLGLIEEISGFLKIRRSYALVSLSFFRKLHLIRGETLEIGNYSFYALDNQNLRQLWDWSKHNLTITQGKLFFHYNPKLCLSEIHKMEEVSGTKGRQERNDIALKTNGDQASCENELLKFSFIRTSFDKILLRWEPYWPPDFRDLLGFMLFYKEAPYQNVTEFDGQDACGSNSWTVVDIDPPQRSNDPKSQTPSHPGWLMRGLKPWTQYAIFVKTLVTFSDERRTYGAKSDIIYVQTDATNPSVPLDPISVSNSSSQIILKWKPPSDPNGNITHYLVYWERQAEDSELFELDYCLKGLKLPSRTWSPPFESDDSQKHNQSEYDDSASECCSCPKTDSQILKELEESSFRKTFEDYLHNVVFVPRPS
T1 sequence (P15208 753-1372 partner limits assumed): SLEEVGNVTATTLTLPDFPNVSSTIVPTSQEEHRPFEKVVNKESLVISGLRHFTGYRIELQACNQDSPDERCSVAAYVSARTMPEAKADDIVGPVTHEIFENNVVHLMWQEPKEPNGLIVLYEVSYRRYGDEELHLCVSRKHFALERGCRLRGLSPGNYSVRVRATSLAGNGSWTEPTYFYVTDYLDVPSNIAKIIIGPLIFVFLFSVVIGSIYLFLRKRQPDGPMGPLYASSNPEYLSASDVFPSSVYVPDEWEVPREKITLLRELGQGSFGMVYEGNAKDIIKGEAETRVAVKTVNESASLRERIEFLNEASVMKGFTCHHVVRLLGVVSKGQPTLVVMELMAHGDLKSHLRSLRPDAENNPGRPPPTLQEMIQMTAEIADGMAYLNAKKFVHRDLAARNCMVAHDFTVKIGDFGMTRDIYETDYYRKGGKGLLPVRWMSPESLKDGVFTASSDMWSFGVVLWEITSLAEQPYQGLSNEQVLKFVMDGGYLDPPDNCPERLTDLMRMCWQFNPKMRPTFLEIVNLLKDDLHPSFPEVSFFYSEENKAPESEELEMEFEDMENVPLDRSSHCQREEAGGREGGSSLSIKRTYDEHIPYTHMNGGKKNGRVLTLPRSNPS

For “insulin: recombinant human insulin, radiolabelled with 125I for binding”, the “Ka of insulin binding to solubilized receptor” value was 1.6e+09 M⁻¹.
